Experimental data from article PMC9718841.

Legend:
[1] = molecular target: recombinant human CALM2 protein (human) (UniProt P0DP24); experiment: MST; labelled CALM2 at 500 nM, peptide in 16-point serial dilution, 25 °C; in the absence (1 mM EDTA, Apo-CALM2) and presence of Ca2+
[2] = molecular target: recombinant human CALM2 protein (human) (UniProt P0DP24); experiment: MST; CaCl2

Sequence of peptide TLIQ2 (O00206 whole entry, looked up, tested part not stated): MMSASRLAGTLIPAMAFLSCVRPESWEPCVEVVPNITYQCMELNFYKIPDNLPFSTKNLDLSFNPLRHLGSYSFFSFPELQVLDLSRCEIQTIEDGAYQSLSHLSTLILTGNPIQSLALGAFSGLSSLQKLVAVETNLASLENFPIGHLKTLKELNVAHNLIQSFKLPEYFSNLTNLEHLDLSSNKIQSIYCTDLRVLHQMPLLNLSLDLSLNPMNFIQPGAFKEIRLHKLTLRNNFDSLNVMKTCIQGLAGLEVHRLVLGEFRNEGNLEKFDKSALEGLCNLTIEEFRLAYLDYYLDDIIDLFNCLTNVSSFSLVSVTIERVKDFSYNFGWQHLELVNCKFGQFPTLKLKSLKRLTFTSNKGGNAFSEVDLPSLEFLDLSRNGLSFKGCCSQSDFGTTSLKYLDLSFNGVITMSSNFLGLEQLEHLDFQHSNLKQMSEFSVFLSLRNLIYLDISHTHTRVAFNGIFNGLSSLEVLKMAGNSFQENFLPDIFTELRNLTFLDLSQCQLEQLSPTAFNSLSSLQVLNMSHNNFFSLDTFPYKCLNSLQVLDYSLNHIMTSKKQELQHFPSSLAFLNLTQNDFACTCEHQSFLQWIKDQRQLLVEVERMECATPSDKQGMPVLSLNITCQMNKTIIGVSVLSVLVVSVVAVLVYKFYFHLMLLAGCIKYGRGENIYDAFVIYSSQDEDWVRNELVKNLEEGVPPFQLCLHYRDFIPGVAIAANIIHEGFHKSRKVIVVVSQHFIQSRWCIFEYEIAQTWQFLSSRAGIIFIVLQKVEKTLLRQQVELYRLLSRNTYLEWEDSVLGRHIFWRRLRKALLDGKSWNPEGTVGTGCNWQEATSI

Kd [1] [µM]	Kd [2] [µM]	Substance
6.69	–	peptide TLIQ2
–	9.03	peptide TLIQ2 (from UniProt O00206)
